Laboratory results from paper PMC4672631 (Biochemistry, 2015).

Target: cytochrome f (PetA), spinach (spinach, UniProt P16013 36-320)
Assay: co-purification with SDS-PAGE densitometry

cytochrome f (PetA), spinach, sequence (P16013 36-320): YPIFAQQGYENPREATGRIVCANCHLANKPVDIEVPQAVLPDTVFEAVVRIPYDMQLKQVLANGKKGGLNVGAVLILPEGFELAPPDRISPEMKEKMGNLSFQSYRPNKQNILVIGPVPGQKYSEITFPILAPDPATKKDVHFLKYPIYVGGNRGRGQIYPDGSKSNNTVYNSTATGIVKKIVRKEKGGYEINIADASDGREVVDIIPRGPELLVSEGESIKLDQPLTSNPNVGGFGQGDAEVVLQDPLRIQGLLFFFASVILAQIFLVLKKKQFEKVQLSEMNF

Binder	stoichiometry N
subunit IV, spinach (natural protein, UniProt P00166 1-160, looked up) MGVTKKPDLNDPVLRAKLAKGMGHNYYGEPAWPNDLLYIFPVVILGTIACNVGLAVLEPSMIGEPADPFATPLEILPEWYFFPVFQILRTVPNKLLGVLLMASVPAGLLTVPFLENVNKFQNPFRRPVATTVFLVGTVVALWLGIGATLPIDKSLTLGLF	0.85 relative to cyt f
iron-sulfur protein (ISP), spinach (natural protein, UniProt P08980 52-230, looked up) ATSIPADNVPDMQKRETLNLLLLGALSLPTGYMLLPYASFFVPPGGGAGTGGTIAKDALGNDVIAAEWLKTHAPGDRTLTQGLKGDPTYLVVESDKTLATFGINAVCTHLGCVVPFNAAENKFICPCHGSQYNNQGRVVRGPAPLSLALAHCDVDDGKVVFVPWTETDFRTGEAPWWSA	0.95 relative to cyt f
cytochrome b6, spinach (natural protein, UniProt P00165 1-215, looked up) MSKVYDWFEERLEIQAIADDITSKYVPPHVNIFYCLGGITLTCFLVQVATGFAMTFYYRPTVTDAFASVQYIMTEVNFGWLIRSVHRWSASMMVLMMILHVFRVYLTGGFKKPRELTWVTGVVLGVLTASFGVTGYSLPWDQIGYWAVKIVTGVPDAIPVIGSPLVELLRGSASVGQSTLTRFYSLHTFVLPLLTAVFMLMHFLMIRKQGISGPL	0.96 relative to cyt f
